Assay results as given in article PMC11869483.

Biological target: PcaLOOL12 (loosenin from Phanerochaete carnosa) produced in Pichia pastoris with a C-terminal His6-tag (Phanerochaete carnosa)
Experiment: SEC-SAXS

**Q.** For “PcaLOOL12 (loosenin from Phanerochaete carnosa) produced in Pichia pastoris with a C-terminal His6-tag (natural protein)”, which stoichiometry N is on record?
**A.** The stoichiometry N was 2.
